According to US6111089, “Trophinin, trophinin-assisting proteins and methods to inhibit implantation” (The Burnham Institute, dated 2000):

B1: human trophinin (other)
chain: MDIDCLTREELGDDSQAWSRFSFEIEARAQENADASTNVNFSRGASTRAGFSDRASISFNGAPSSSGGFSGGPGITFGVAPSTSASFSNTASISFGGTLSTSSSFSSAASISFGCAHSTSTSFSSEASISFGGMPCTSASFSGGVSSSFSGPLSTSATFSGGASSGFGGTLSTTAGFSGVLSTSTSFGSAPTTSTVFSSALSTSTGFGGILSTSVCFGGSPSSSGSFGGTLSTSICFGGSPCTSTGFGGTLSTSVSFGGSSSTSANFGGTLSTSICFDGSPSTGAGFGGALNTSASFGSVLNTSTGFGGAMSTSADFGGTLSTSVCFGGSPGTSVSFGSALNTNAGYGGAVSTNTDFGGTLSTSVCFGGSPSTSAGFGGALNTNASFGCAVSTSASFSGAVSTSACFSGAPITNPGFGGAFSTSAGFGGALSTAADFGGTPSNSIGFGAAPSTSVSFGGAHGTSLCFGGAPSTSLCFGSASNTNLCFGGPPSTSACFSGATSPSFCDGPSTSTGFSFGNGLSTNAGFGGGLNTSAGFGGGLGTSAGFSGGLSTSSGFDGGLGTSAGFGGGPGTSTGFGGGLGTSAGFSGGLGTSAGFGGGLVTSDGFGGGLGTNASFGSTLGTSAGFSGGLSTSDGFGSRPNASFDRGLSTIIGFGSGSNTSTGFTGEPSTSTGFSSGPSSIVGFSGGPSTGVGFCSGPSTSGFSGGPSTGAGFGGGPNTGAGFGGGPSTSAGFGSGAASLGACGFSYG

Key:
biotinylated GST = biotinylated GST (Schistosoma japonicum (Blood fluke), UniProt P08515 = GST, labeled with biotin succinamide); experiment: staining of unpermeabilized HT-H, SNG-M and trophinin/tastin-transfected COS-1 cells, avidin-FITC
Method: (§1) To identify hydrophilic extracellular domains of human trophinin that mediate cell adhesion, individual domains were expressed and evaluated for specific binding to trophinin expressing cells. The trophinin extracellular domain fusion proteins GST551, GST552 and GST553, the GST-N-terminal trophinin domain (residue 1 to 66) and GST were labeled with biotin succinamide (Sigma). SNG-M, HT-H and COS-1 cells transfected with a mixture of human trophinin and tastin cDNA were grown on coverslips and processed for cell staining with the biotinylated proteins essentially as was described for the antibodies to the external domains of trophinin, except that avidin-FITC (Cappel) was used in place of a FITC-secondary antibody.

human trophinin = target: B1; experiment: as above
Method: as §1

| Binder | binding result (biotinylated GST) | binding result (human trophinin) |
| --- | --- | --- |
| B1 | no binding |  |
| biotinylated GST-N-terminal trophinin (other, also: labeled with biotin succinamide (site not given here)) {GST}-MDIDCLTREELGDDSQAWSRFSFEIEARAQENADASTNVNFSRGASTRAGFSDRASISFNGAPSSS |  | no binding |
